Measured values reported in patent US8221773B2, “Hydrogels and uses thereof” (University of Delaware, priority 2004, dated 2012).
Where no end group is shown, it is not given here.

Legend:
[1] = Oscillatory rheology of peptide hydrogels (storage and loss moduli); format: physicochemical
Text: (gel storage modulus of ˜600 Pa). Gel formation continued to mature after two hours with a doubling of the gel modulus to ~1200 Pa. An equilibrium storage modulus of ~1600 Pa was reached after several hours of gel formation. This equilibrium behavior is clearly shown by the linear, frequency independent moduli measurements in FIG. 6B. For comparison, the storage modulus of strawberry gelatin is ˜50 Pa (data not shown).
In FIG. 6D, a time sweep experiment identical to that performed during the original gel formation was run immediately after the application of 1000% strain at 6 Hz for 180 seconds. The initial modulus of the reforming gel was 650 Pa with 80% of the equilibrium modulus recovered after only 30 minutes making this a quick recovering and relatively strong hydrogel. For comparison, a 2 wt % gelatin hydrogel takes over 4 h to recover 80% of its equilibrium modulus after shear thinning.
Rheology: Dynamic time and frequency sweep experiments were performed in a strain controlled Rheometrics ARES rheometer with 25.0 mm diameter parallel plate geometry and 0.5 mm gap distance. Lyophilized peptide was dissolved in de-ionized water and buffer or cell growth media solution at 10° C. in order to suppress folding and gelation before the sample is loaded into the rheometer. After the sample was loaded, temperature was increased to either 20° C. or 37° C. Standard low viscosity mineral oil was used to insulate the sides of the plate in order to suppress evaporation. […] Strain sweep experiments were performed to determine the linear viscoelastic regime in which all rheological experiments were performed. Dynamic time sweep experiments were performed with a frequency and strain of 6 rad/s and 1%, respectively. Frequency sweep experiments were performed with a frequency and strain of 0.1-100 rad/s and 5%, respectively.

[2] = Hydrogelation by folding and self-assembly; format: physicochemical; settings: pH 9, heating/cooling cycles
Procedure: The ability of MAX1 to undergo hydrogelation is dependent upon its unimolecular folded state. Under basic aqueous solution conditions (pH 9.0, 125 mM Borate, 10 mM NaCl), where some of the lysine side chains of MAX1 are neutral, this peptide intramolecularly folds into an amphiphilic β-hairpin (folding can also be triggered at pH 7 under physiological conditions). One face of the hairpin is lined with hydrophobic valine residues while the other face is lined with hydrophilic lysine residues, FIGS. 2 and 3A. After intramolecular folding, subsequent self-assembly of hairpins is facilitated (a) laterally via H-bond formation and attractive hydrophobic interactions between distinct hairpins as well as (b) facially by hydrophobic association of the valine-rich faces of the folded peptide resulting in hydrogelation, FIG. 3B. Since the charged state of the lysine residues are controlled by pH, the unimolecular folding is reversible. Lowering the pH below the intrinsic pKa of the lysine side chains results in intra-strand charge repulsion from neighboring lysines and subsequent unfolding of individual hairpins, ultimately dissolving the self-assembled hydrogel structure. This reversible behavior is unique when compared to β-sheet-rich hydrogels prepared from classical fibril-based designs. In these systems, the self-assembly process is irreversible.
There are reports of large polymers that are thermally responsive. The present invention provides the first system that employs temperature triggered folding to induce self-assembly. […] Heating the solution to 80° C. results in a spectra consistent with β-sheet structure. […] The temperatures used in both CD and rheology bracket the temperature (Tgel=60° C., FIG. 9) at which folding and consequent self-assembly is triggered. […] For example, free flowing peptide solutions could be prepared at room temperature and administered in vivo where the temperature of the body could induce gelation. Some Poly-N-isopropylacrylamide polymers have been engineered have been engineered to undergo such transitions ultimately affording extracellular-like scaffolds for tissue regeneration. The above studies support the idea that the formation of hydrophobic interactions are important. MAX1-3 all contain valines and threonines at hydrogen bonded positions. At these positions, their side chains prefer to adopt a trans rotamer. As a result, hydrophobic residues that oppose each other across the hairpin point their side chains in opposite directions thus making the formation of intramolecular hydrophobic interactions across the strands difficult, FIG. 11A. However, these side chains are nicely positioned to interact laterally with the hydrophobic side chains of neighboring hairpins in the self-assembled state, FIG. 11B. Forming these lateral hydrophobic interactions should favor self-assembly. […] In MAX4, opposing valine side chains are expected to point towards each other, FIG. 11B. Thus, the valine side chains of MAX4 are less likely than those in MAX1 to form lateral intermolecular hydrophobic interactions. If the formation of lateral intermolecular hydrophobic interactions is of more importance for self-assembly than intramolecular hydrophobic contacts, then the rate of self-assembly should be faster for MAX1 than for MAX4. This difference in rate should be evident in the rate of storage moduli (rigidity) increase. […] (Tgel=20° C. for both peptides). […]

[3] = 2 wt %, pH 7.4, 20 mM NaCl, 20° C
[4] = 2 wt %, pH 9, 1000% strain at 6 Hz for 180 s (FIG. 6D legend)
[5] = 2 wt %, serum free DMEM cell growth media, 37° C

Q: For “VKVKVKVK V^DPPT KVKVKVKV-NH2 (not fully specified (C-terminus)) [MAX1]”, which “rate of self-assembly leading to a rheological response, compared to MAX4” value ([1]; 1 wt % preparations, 40° C, pH 9.0, 125 mM Borate, 10 mM NaCl) is on record?
A: faster

Q: And the “G′ values (frequency sweep)” value ([1]; 2 wt %, cell growth media, 37° C)?
A: ~2500 Pa

Q: And the “G′ recovered instantaneously after cessation of shear, of initial value” ([1]; 2 wt %, cell growth media, 37° C, after 1000% strain at 6 rad/s)?
A: ~50%

Q: What about the “hydrogel rigidity (storage modulus)” value ([1]; 2 wt %, pH 7, NaCl final concentration 150 mM, data not shown) of the same sequence?
A: 3000 Pa

Q: What about the “G′ during lag time” value [1, 3] of the same sequence?
A: 2-3 Pa

Q: And the “lag time before G′ increases” value [1, 3]?
A: 3000 s

Q: What about the “storage modulus (G′)” value ([1]; 2 wt %, pH 7.4, 20 mM NaCl, 20° C, after 2.5 hr gelation) of the same sequence?
A: ~100 Pa

Q: What about the “lag time before G′ increases” value ([1]; 2 wt %, pH 7.4, 150 mM NaCl, 20° C) of the same sequence?
A: ~1000 s

Q: And the “time of gelation to a material of useful rigidity” value ([1]; 2 wt %, pH 7.4, 150 mM NaCl, 37° C)?
A: about 10 minutes

Q: What about the “G′ value (frequency sweep)” value ([1]; 2 wt %, pH 7.4, 150 mM NaCl, 37° C, after 2.5 hours gelation) of the same sequence?
A: around 2000 Pa

Q: What about the “lag time before G′ increases” value ([1]; 2 wt %, pH 7.4, 400 mM NaCl, 20° C) of the same sequence?
A: does not exist

Q: And the “equilibrium storage modulus (G′)” value ([1]; 2 wt %, pH 7.4, 400 mM NaCl, 20° C, after 2.5 hr gelation)?
A: ~3000 Pa

Q: What about the “former rigidity regained immediately after large strain” value [1, 4] of the same sequence?
A: ~75%

Q: What about the “time to regain prestrain rigidity” value [1, 4] of the same sequence?
A: 10 to 20 min

Q: What about the “equilibrium modulus recovered after 30 minutes” value ([1]; 2 wt %, pH 9, after 1000% strain at 6 Hz for 180 seconds) of the same sequence?
A: 80%

Q: And the “initial modulus of the reforming gel” value ([1]; 2 wt %, pH 9, immediately after 1000% strain at 6 Hz for 180 seconds)?
A: 650 Pa

Q: What about the “storage moduli (rigidity) of gels prepared by protocol 1” value ([1]; 2 wt %, pH 9 borate buffer trigger, then bathed in DMEM with 10% calf serum) of the same sequence?
A: about 1600 Pa

Q: What about the “G′ at the end of 2 hours of gelation” value [1, 5] of the same sequence?
A: 2300 Pa

Q: And the “G″ at the end of 2 hours of gelation” value [1, 5]?
A: 50 Pa

Q: And the “G′ values” ([1]; pH 7.4 without added NaCl, after 3 hours, no gelation)?
A: approximately 1 Pa

Q: And the “crossover concentration separating liquid-like (G″>G′) and gel-like (G′>G″) response” value ([1]; pH 9)?
A: about 1 wt %

Q: And the “reversibility of thermally induced hydrogelation” value [2]?
A: not reversible
